The source of these data is patent US20230046744A1 (APO T B V, published 2023).

For assay [1], the target named is T1, biotinylated HLA-A*2402/… complex (human, biotinylated complex, site not stated).
T1 construct: recombinant complex on streptavidin plates
Description: ELISA, biotinylated complexes on streptavidin plates, dilution series of the antibody. (ELISA stands for enzyme-linked immunosorbent assay.)

The target of assay [2] is T2, biotinylated HLA-A*2402/… complex (human, biotinylated complex, site not stated).
T2 construct: control complex on streptavidin plates
Description: ELISA, biotinylated complexes on streptavidin plates.

Assay [3] deals with HLA-A*2402/… complex on CHO-S cells (human). As to the kind of experiment: flow cytometry on CHO-S transfectants. Background: In flow cytometry, cells or beads pass a laser one at a time.
Description: Non transfected CHO-S cells were used as a control. For the staining 200′000 cells were suspended in 100 μl PBS containing 0.1% BSA. […] After 30 minutes incubation at 40° C. the cells were washed two times with 200 μl PBS containing 0.1% BSA. […] After the incubation, cells were washed again two times with 200 μl PBS containing 0.1% BSA.
Assay [4] deals with T3, HLA-A*0201/… with alanine at peptide position 6, on peptide-pulsed JY cells (human).
T3 construct: built from the parent peptide and the stated change
As to the kind of experiment: flow cytometry, peptide-pulsed JY cells.
Description: (§1) Briefly, 200′000 JY cells were incubated (pulsed) overnight under serum free conditions with 100 μg/ml peptide variants. The amino acids of the used peptides were sequentially substituted for an alanine (information regarding sequences of peptides is summarized FIG. 3B).

Assay [5] addresses T4, HLA-A*0201/… with alanine at peptide position 3, on peptide-pulsed JY cells (human).
T4 construct: built from the parent peptide and the stated change
As to the kind of experiment: flow cytometry, peptide-pulsed JY cells.
Description: as §1

Assay [6] concerns the target T5, HLA-A*0201/… with alanine at peptide position 5, on peptide-pulsed JY cells (human).
T5 construct: built from the parent peptide and the stated change
As to the kind of experiment: flow cytometry, peptide-pulsed JY cells.
Description: as §1

Assay [7] addresses T6, HLA-A*0201/… with alanine at peptide position 4, on peptide-pulsed JY cells (human).
T6 construct: built from the parent peptide and the stated change
As to the kind of experiment: flow cytometry, peptide-pulsed JY cells.
Description: as §1

The target of assay [8] is T7, CD3 molecule expressed on the surface of T cells (human, UniProt P07766 23-207).
T7 construct: whole, on cells; CD3 complex on cells; also called CD3 on PBMCs; CD3 on surface of immune effector cells
As to the kind of experiment: flow cytometry on PBMCs.

T7 sequence (P07766 23-207): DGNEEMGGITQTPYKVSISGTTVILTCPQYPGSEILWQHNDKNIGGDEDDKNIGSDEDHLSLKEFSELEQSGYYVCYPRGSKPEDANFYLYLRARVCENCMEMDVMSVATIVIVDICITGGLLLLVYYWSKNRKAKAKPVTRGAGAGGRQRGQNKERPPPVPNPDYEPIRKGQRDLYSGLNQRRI

B1: murine 9A7 IgG (antibody, V domains shown)
VH: QVQLQQPGAELVKPGASVKLSCKASGYTFTSFWMHWVKQRPGQGLEWIGEIDSSDSYTNYNQKFKGKATLTVDKSSSTAYMQLSSLTSDDSAVYYCARRVGRGYFDYWGQGTTLTVSS
VL: DIVMTQSHKFMSTSVGDRVSITCKASQDVRTAVVWYQQKPGQSPKLLIYWASTRHTGVPDRFTGSGSGTDYILTISSVQAEDLALYYCQQYDTTPWTFGGGTKVEIK
notes: mouse IgG from hybridoma; also called mouse 9A7 IgG; 9A7 murine antibody
Usually IC50 stands for the midpoint of a concentration-inhibition curve. Read a high IC50 as a need for much substance. In assay [1], B1 yielded a half-maximal inhibitory concentration (IC50) of 0.037 nM. In addition, the binding result in assay [2] was “no binding (tested: dilution series starting at 100 nM)”; in assay [3] it was “no binding (tested: dilution series starting at 222 nM)”.

B2: 4A6 IgG (antibody, V domains shown)
VH: EVQLVQSGAEVKKPGSSVKVSCKASGGTFSSYAISWVRQAPGQGLEWMGGIIPIFGTADYAQKFQGRATITADESTSTAYMELSSLRSEDTAVYYCARDYDFWSGYYAGDVWGQGTTVTVSS
VL: QSALTQPASVSGSPGQSITISCTGTSSDVGGYNYVSWYQQHPGKAPKLMIYDVSNRPSGVSNRFSGSKSGNTASLTISGLQAEDEADYYCSSYTSSSTRVFGGGTKLTVL
notes: IgG detected with anti-human IgG; also called 4A6 antibody
In the case of B2, the binding result in assay [4], in assay [5], in assay [6] and in assay [7] was “no binding” in each case.

B3: 4A6_SC_FV (scFv, V domains shown)
VH: EVQLVQSGAEVKKPGSSVKVSCKASGGTFSSYAISWVRQAPGQGLEWMGGIIPIFGTADYAQKFQGRATITADESTSTAYMELSSLRSEDTAVYYCARDYDFWSGYYAGDVWGQGTTVTVSS
VL: QSALTQPASVSGSPGQSITISCTGTSSDVGGYNYVSWYQQHPGKAPKLMIYDVSNRPSGVSNRFSGSKSGNTASLTISGLQAEDEADYYCSSYTSSSTRVFGGGTKLTVL
notes: scFv of 4A6; VH and VL are those named for 4A6; also called monospecific antibody fragment
On to B3, for which, in assay [8], the binding result is reported as “no binding (tested: 50 ng/ml)”.
